# B1: UGT76G1var33: UGT76G1 variant, mutations A33G_R334H_Y397Q (protein, UniProt Q6VAB4 1-458, looked up, variant A33G R334H Y397Q)
# UDP-glycosyltransferase 76G1: MENKTETTVRRRRRIILFPVPFQGHINPILQLGNVLYSKGFSITIFHTNFNKPKTSNYPHFTFRFILDNDPQDERISNLPTHGPLAGMRIPIINEHGADELRRELELLMLASEEDEEVSCLITDALWYFAQSVADSLNLRRLVLMTSSLFNFHAHVSLPQFDELGYLDPDDKTRLEEQASGFPMLKVKDIKSAYSNWQILKEILGKMIKQTKASSGVIWNSFKELEESELETVIREIPAPSFLIPLPKHLTASSSSLLDHDRTVFQWLDQQPPSSVLYVSFGSTSEVDEKDFLEIARGLVDSKQSFLWVVRPGFVKGSTWVEPLPDGFLGERGHIVKWVPQQEVLAHGAIGAFWTHSGWNSTLESVCEGVPMIFSDFGLDQPLNARYMSDVLKVGVQLENGWERGEIANAIRRVMVDEEGEYIRQNARVLKQKADVSLMKGGSSYESLESLVSYISSL
# B2: UGT76G1var35: UGT76G1 variant, mutations T284L_F314S_S357N (protein, UniProt Q6VAB4 1-458, looked up, variant T284L F314S S357N)
# UDP-glycosyltransferase 76G1: MENKTETTVRRRRRIILFPVPFQGHINPILQLANVLYSKGFSITIFHTNFNKPKTSNYPHFTFRFILDNDPQDERISNLPTHGPLAGMRIPIINEHGADELRRELELLMLASEEDEEVSCLITDALWYFAQSVADSLNLRRLVLMTSSLFNFHAHVSLPQFDELGYLDPDDKTRLEEQASGFPMLKVKDIKSAYSNWQILKEILGKMIKQTKASSGVIWNSFKELEESELETVIREIPAPSFLIPLPKHLTASSSSLLDHDRTVFQWLDQQPPSSVLYVSFGSLSEVDEKDFLEIARGLVDSKQSFLWVVRPGSVKGSTWVEPLPDGFLGERGRIVKWVPQQEVLAHGAIGAFWTHNGWNSTLESVCEGVPMIFSDFGLDQPLNARYMSDVLKVGVYLENGWERGEIANAIRRVMVDEEGEYIRQNARVLKQKADVSLMKGGSSYESLESLVSYISSL
# B3: UGT76G1var38: UGT76G1 variant, mutations F41L_I295M_F377C (protein, UniProt Q6VAB4 1-458, looked up, variant F41L I295M F377C)
# UDP-glycosyltransferase 76G1: MENKTETTVRRRRRIILFPVPFQGHINPILQLANVLYSKGLSITIFHTNFNKPKTSNYPHFTFRFILDNDPQDERISNLPTHGPLAGMRIPIINEHGADELRRELELLMLASEEDEEVSCLITDALWYFAQSVADSLNLRRLVLMTSSLFNFHAHVSLPQFDELGYLDPDDKTRLEEQASGFPMLKVKDIKSAYSNWQILKEILGKMIKQTKASSGVIWNSFKELEESELETVIREIPAPSFLIPLPKHLTASSSSLLDHDRTVFQWLDQQPPSSVLYVSFGSTSEVDEKDFLEMARGLVDSKQSFLWVVRPGFVKGSTWVEPLPDGFLGERGRIVKWVPQQEVLAHGAIGAFWTHSGWNSTLESVCEGVPMIFSDCGLDQPLNARYMSDVLKVGVYLENGWERGEIANAIRRVMVDEEGEYIRQNARVLKQKADVSLMKGGSSYESLESLVSYISSL
# B4: UGT76G1var40: UGT76G1 variant, mutations T263S_Q266E_S375R (protein, UniProt Q6VAB4 1-458, looked up, variant T263S Q266E S375R)
# UDP-glycosyltransferase 76G1: MENKTETTVRRRRRIILFPVPFQGHINPILQLANVLYSKGFSITIFHTNFNKPKTSNYPHFTFRFILDNDPQDERISNLPTHGPLAGMRIPIINEHGADELRRELELLMLASEEDEEVSCLITDALWYFAQSVADSLNLRRLVLMTSSLFNFHAHVSLPQFDELGYLDPDDKTRLEEQASGFPMLKVKDIKSAYSNWQILKEILGKMIKQTKASSGVIWNSFKELEESELETVIREIPAPSFLIPLPKHLTASSSSLLDHDRSVFEWLDQQPPSSVLYVSFGSTSEVDEKDFLEIARGLVDSKQSFLWVVRPGFVKGSTWVEPLPDGFLGERGRIVKWVPQQEVLAHGAIGAFWTHSGWNSTLESVCEGVPMIFRDFGLDQPLNARYMSDVLKVGVYLENGWERGEIANAIRRVMVDEEGEYIRQNARVLKQKADVSLMKGGSSYESLESLVSYISSL
# B5: UGT76G1var37: UGT76G1 variant, mutations E229A_L379G_I407V (protein, UniProt Q6VAB4 1-458, looked up, variant E229A L379G I407V)
# UDP-glycosyltransferase 76G1: MENKTETTVRRRRRIILFPVPFQGHINPILQLANVLYSKGFSITIFHTNFNKPKTSNYPHFTFRFILDNDPQDERISNLPTHGPLAGMRIPIINEHGADELRRELELLMLASEEDEEVSCLITDALWYFAQSVADSLNLRRLVLMTSSLFNFHAHVSLPQFDELGYLDPDDKTRLEEQASGFPMLKVKDIKSAYSNWQILKEILGKMIKQTKASSGVIWNSFKELEESALETVIREIPAPSFLIPLPKHLTASSSSLLDHDRTVFQWLDQQPPSSVLYVSFGSTSEVDEKDFLEIARGLVDSKQSFLWVVRPGFVKGSTWVEPLPDGFLGERGRIVKWVPQQEVLAHGAIGAFWTHSGWNSTLESVCEGVPMIFSDFGGDQPLNARYMSDVLKVGVYLENGWERGEVANAIRRVMVDEEGEYIRQNARVLKQKADVSLMKGGSSYESLESLVSYISSL
# B6: UGT76G1var1: UGT76G1 variant, mutations E224A_F314S_R334K (protein, UniProt Q6VAB4 1-458, looked up, variant E224A F314S R334K)
# UDP-glycosyltransferase 76G1: MENKTETTVRRRRRIILFPVPFQGHINPILQLANVLYSKGFSITIFHTNFNKPKTSNYPHFTFRFILDNDPQDERISNLPTHGPLAGMRIPIINEHGADELRRELELLMLASEEDEEVSCLITDALWYFAQSVADSLNLRRLVLMTSSLFNFHAHVSLPQFDELGYLDPDDKTRLEEQASGFPMLKVKDIKSAYSNWQILKEILGKMIKQTKASSGVIWNSFKALEESELETVIREIPAPSFLIPLPKHLTASSSSLLDHDRTVFQWLDQQPPSSVLYVSFGSTSEVDEKDFLEIARGLVDSKQSFLWVVRPGSVKGSTWVEPLPDGFLGERGKIVKWVPQQEVLAHGAIGAFWTHSGWNSTLESVCEGVPMIFSDFGLDQPLNARYMSDVLKVGVYLENGWERGEIANAIRRVMVDEEGEYIRQNARVLKQKADVSLMKGGSSYESLESLVSYISSL
# B7: UGT76G1var36: UGT76G1 variant, mutations F265L_L379A_V396F (protein, UniProt Q6VAB4 1-458, looked up, variant F265L L379A V396F)
# UDP-glycosyltransferase 76G1: MENKTETTVRRRRRIILFPVPFQGHINPILQLANVLYSKGFSITIFHTNFNKPKTSNYPHFTFRFILDNDPQDERISNLPTHGPLAGMRIPIINEHGADELRRELELLMLASEEDEEVSCLITDALWYFAQSVADSLNLRRLVLMTSSLFNFHAHVSLPQFDELGYLDPDDKTRLEEQASGFPMLKVKDIKSAYSNWQILKEILGKMIKQTKASSGVIWNSFKELEESELETVIREIPAPSFLIPLPKHLTASSSSLLDHDRTVLQWLDQQPPSSVLYVSFGSTSEVDEKDFLEIARGLVDSKQSFLWVVRPGFVKGSTWVEPLPDGFLGERGRIVKWVPQQEVLAHGAIGAFWTHSGWNSTLESVCEGVPMIFSDFGADQPLNARYMSDVLKVGFYLENGWERGEIANAIRRVMVDEEGEYIRQNARVLKQKADVSLMKGGSSYESLESLVSYISSL
# B8: UGT76G1var34: UGT76G1 variant, mutations I43V_T284I_I295T (protein, UniProt Q6VAB4 1-458, looked up, variant I43V T284I I295T)
# UDP-glycosyltransferase 76G1: MENKTETTVRRRRRIILFPVPFQGHINPILQLANVLYSKGFSVTIFHTNFNKPKTSNYPHFTFRFILDNDPQDERISNLPTHGPLAGMRIPIINEHGADELRRELELLMLASEEDEEVSCLITDALWYFAQSVADSLNLRRLVLMTSSLFNFHAHVSLPQFDELGYLDPDDKTRLEEQASGFPMLKVKDIKSAYSNWQILKEILGKMIKQTKASSGVIWNSFKELEESELETVIREIPAPSFLIPLPKHLTASSSSLLDHDRTVFQWLDQQPPSSVLYVSFGSISEVDEKDFLETARGLVDSKQSFLWVVRPGFVKGSTWVEPLPDGFLGERGRIVKWVPQQEVLAHGAIGAFWTHSGWNSTLESVCEGVPMIFSDFGLDQPLNARYMSDVLKVGVYLENGWERGEIANAIRRVMVDEEGEYIRQNARVLKQKADVSLMKGGSSYESLESLVSYISSL
# B9: UGT76G1var39: UGT76G1 variant, mutations F22Y_F41L_V366I (protein, UniProt Q6VAB4 1-458, looked up, variant F22Y F41L V366I)
# UDP-glycosyltransferase 76G1: MENKTETTVRRRRRIILFPVPYQGHINPILQLANVLYSKGLSITIFHTNFNKPKTSNYPHFTFRFILDNDPQDERISNLPTHGPLAGMRIPIINEHGADELRRELELLMLASEEDEEVSCLITDALWYFAQSVADSLNLRRLVLMTSSLFNFHAHVSLPQFDELGYLDPDDKTRLEEQASGFPMLKVKDIKSAYSNWQILKEILGKMIKQTKASSGVIWNSFKELEESELETVIREIPAPSFLIPLPKHLTASSSSLLDHDRTVFQWLDQQPPSSVLYVSFGSTSEVDEKDFLEIARGLVDSKQSFLWVVRPGFVKGSTWVEPLPDGFLGERGRIVKWVPQQEVLAHGAIGAFWTHSGWNSTLESICEGVPMIFSDFGLDQPLNARYMSDVLKVGVYLENGWERGEIANAIRRVMVDEEGEYIRQNARVLKQKADVSLMKGGSSYESLESLVSYISSL
# Test: Directed evolution of UGT76G1, conversion of Rebaudioside D to Rebaudioside M (round 1)
# Type: biochemical
# Conditions: 0.5 mM Rebaudioside D, 2.5 mM UDP-Glucose, 100 μL fresh lysate, 30° C., pH 7.2
# Description: Starting from the amino acid sequence of UGT76G1, as is described in Genbank (AAR06912.1), different mutations at various amino acid positions were identified that could alter the activity of the enzyme for the transformation of Rebaudioside D (Reb D) to Rebaudioside M (Reb M). This list of mutations, designed by DNA2.0 ProteinGPS™ strategy, was subsequently used to synthesize 96 variant genes that contained 3, 4 or 5 of these mutations that were codon-optimized for expression in E. coli. The genes were subcloned in the pET30a+ plasmid and used for transformation of E. coli BL21 (DE3) chemically competent cells. The obtained cells were grown in Petri-dishes on solid LB medium in the presence of Kanamycin. Suitable colonies were selected and allowed to grow in liquid LB medium in tubes. Glycerol was added to the suspension as cryoprotectant and 400 μL aliquots were stored at −20° C. and at −80° C.
# These storage aliquots of E. coli BL21(DE3) containing the pET30a+_UGT76G1var plasmids were thawed and added to LBGKP medium (20 g/L Luria Broth Lennox; 50 mM PIPES buffer pH 7.00; 50 mM Phosphate buffer pH 7.00; 2.5 g/L glucose and 50 mg/L of Kanamycine). This culture was allowed to shake in a 96 microtiter plate at 135 rpm at 30° C. for 8 h.
# 3.95 mL of production medium containing 60 g/L of Overnight Express™ Instant TB medium (Novagen®), 10 g/L of glycerol and 50 mg/L of Kanamycin was inoculated with 50 μL of above described culture. In a 48 deepwell plate the resulting culture was allowed to stir at 20° C. The cultures gave significant growth and a good OD (600 nm; 1 cm) was obtained. After 44 h, the cells were harvested by centrifugation and frozen.
# Lysis was performed by addition of Bugbuster® Master mix (Novagen®) to the thawed cells and the lysate was recovered by centrifugation. Activity tests were performed with 100 μL of fresh lysate that was added to a solution of Rebaudioside D (final concentration 0.5 mM), MgCl2 (final concentration 3 mM) and UDP-Glucose (final concentration 2.5 mM) in 50 mM phosphate buffer pH 7.2.
# The reaction was allowed to run at 30° C. and samples were taken after 2, 4, 7 and 24 h. to determine conversion and initial rate by HPLC (CAD detection) using the analytical method that was described above for the transformation of Rebaudioside D to Rebaudioside M. The results are depicted in the following table.
Molecule,Conversion Reb D to Reb M after 24 h (%),initial rate (Reb M area/min)
B1,1.0%,7.5E+06 Reb M area/min
B2,0.5%,1.8E+05 Reb M area/min
B3,8.2%,3.7E+06 Reb M area/min
B4,47.6%,3.3E+07 Reb M area/min
B5,39.1%,2.8E+07 Reb M area/min
B6,51.8%,5.5E+07 Reb M area/min
B7,20.0%,8.8E+06 Reb M area/min
B8,3.4%,1.5E+06 Reb M area/min
B9,7.2%,3.3E+06 Reb M area/min

# From patent US20170275666A1, “Methods for Preparing Rebaudioside I and Uses” (The Coca-Cola Company, priority 2014, published 2017)
